Results taken from US20130224313A1 (CENTRO DE INGENIERIA GENETICA Y BIOTECNOLOGIA, published 2013).

What was measured:
[1] = target: T1, COMMD1 protein, amino acids 6-190 (two-hybrid clone L2-21) (human, UniProt Q8N668 6-190); experiment: yeast two-hybrid screen of a human liver cDNA library, verified by mating
T1 construct: range 6-190; Prey clone found in the two-hybrid screen; also called MURR1; not shown: fusion partner of the human liver cDNA library (prey) vector in strain Y187; not described
Method: (§1) FIG. 1. The figure illustrates the physical interaction between the L2 peptide and COMMD1. This was carried out by the technique of two hybrids in yeast. As negative controls were used the mating of the yeast strain AH109 transformed with the empty vector (pGBKT7) and the fragments of COMMD1 transformed with the Y187 strain. For the identification of the interaction, mating of the strain AH109 transformed with vector carrying the sequence of L2 and each COMMD1 fragment transformed into strain Y187 was carried out. As a positive control, the PCL1 mating bearing the GAL4 transcription factor was used. As it can be noted, the interaction occurs with the plasmids carrying the complete sequence of the COMMD1 gene and the construction containing the amino acids 110-190 of the COMMD1 protein.
(§2) corresponding to the L2 peptide sequence: […] For cloning these sequences in the pGBKT7 NcoI-BamHI vector, sequences complementary to these sites were added at the ends of the oligonucleotides. The pGBKL2-1 recombinant plasmid, which carries the L2 peptide sequence was verified by restriction analysis and sequencing. The plasmid was transformed into the AH109 yeast strain by the lithium acetate method and grown in SD-Trp medium. It was verified that it could not be self-activated when grown on SD-Trp-His plates. […]

[2] = target: T2, COMMD1 fragment, amino acids 110-190 (clone pGBKL2 (110-190)) (human, UniProt Q8N668 110-190); experiment: yeast two-hybrid with deletion clones
T2 construct: range 110-190; also called COMM domain; not shown: two-hybrid vector fusion partner; not described
Method: as §1, §2

T2 sequence (Q8N668 110-190): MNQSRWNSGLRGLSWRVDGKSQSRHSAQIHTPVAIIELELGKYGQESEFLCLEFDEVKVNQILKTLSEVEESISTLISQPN
T1 sequence (Q8N668 6-190): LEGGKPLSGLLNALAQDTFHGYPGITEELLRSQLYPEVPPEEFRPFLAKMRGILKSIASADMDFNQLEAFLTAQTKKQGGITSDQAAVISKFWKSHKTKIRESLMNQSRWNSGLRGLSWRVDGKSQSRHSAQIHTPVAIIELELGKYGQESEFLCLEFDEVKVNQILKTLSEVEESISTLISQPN

binding result [1]: binds
binding result [2]: binds
B1: L2 peptide expressed from plasmid pGBKL2-1 (pGBKT7 vector) in yeast strain AH109 (peptide)
chain: HARIKPTFRRLKWKYKGKFW
notes: Two-hybrid bait; not shown: fusion partner encoded by the pGBKT7 two-hybrid bait vector
